Test [1] addresses regulatory domains of PKCα with mCer (N-terminal TEV product of the PKCα sensor cut between C2 and kinase) (human). Description: dynamic light scattering; sensor pre-treated with TEV protease or BSA, or C2-mCit; relative increase in particle mass after 2 min with free calcium, matched concentration.
The target of test [2] is PKCα sensor (N-terminal mCer, C-terminal mCit) with a TEV protease site between the C2 and kinase domains (human) (UniProt P17252). The test is described as above.
Test [3] concerns the target PKC alpha C2 (UniProt P17252). The note with it: cited from earlier work.
Test [4] has as its target C1a - 10 nm - C2 SPASM biosensor (human) (UniProt P17252). Description: FRET or BRET; change in heteroFRET after addition of free calcium against the concentration of C1a - 10 nm - C2; Hill binding model; half-maximal value taken as an estimate of the dissociation constant.

Usually Kd stands for the free concentration of one partner at which half of the binding sites on the other are occupied at equilibrium, for simple one-to-one binding.

With “regulatory domains of PKCα with mCer (N-terminal TEV product of the PKCα sensor cut between C2 and kinase) (domain or fragment)”, the mean particle size increase after free calcium (DLS, normalised) in test [1] was determined as 2.61.
For “PKCα sensor (N-terminal mCer, C-terminal mCit) with a TEV protease site between the C2 and kinase domains (from UniProt P17252 1-672) (natural protein)”, in test [2], the mean particle size increase after free calcium (DLS, normalised) was determined as 5.61.
Take PKC alpha C1a (from UniProt P17252): the Kd in test [3] is 4 nM.
Take “C1a - 10 nm - C2 SPASM biosensor (from UniProt P17252 32-100; P17252 158-292)”: in test [4], the Kd was 61.1 nM.

Values taken from publication PMC5051681.
